Assay results published in the supplement of paper PMC7125110.
± gives the standard error. Fewer inactive variants are shown than the library holds.

B1: glmS ribozyme (parent)
chain: AUAAAAGCGCCAGAACUACAGAAAUGUAGUUGACGAGGAGGAGGUUUAUCGAAUUUUCGGCGGAUGCCUCCAAA

Assays:
Details in all cases: with glucosamine-6-phosphate
glucosamine-6-phosphate [1] = variants of: B1; assay: self-cleavage kobs at 40 uM GlcN6P; higher = faster cleavage; RNA array
Procedure, shortened: (§1)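 kcat and KM were obtained from weighted Michaelis–Menten fits across concentrations of kobs values. Those came from one- or two-exponential decay fits to per-tile medians normalised to baseline and to non-cleaving reference variants. The variants were barcoded ribozymes transcribed in situ by E. coli RNA polymerase on sequenced MiSeq chips and tracked through a hybridised Cy3 probe at 37 °C, with 40 μM to 10 mM glucosamine-6-phosphate in HEPES/KCl/Mg(OAc)2 buffer flowed in.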

glucosamine-6-phosphate [2] = variants of: B1; assay: self-cleavage kobs at 160 uM GlcN6P; higher = faster cleavage; RNA array
Procedure, shortened: as §1

glucosamine-6-phosphate [3] = variants of: B1; assay: self-cleavage kobs at 2500 uM GlcN6P; higher = faster cleavage; RNA array
Procedure, shortened: as §1

glucosamine-6-phosphate [4] = variants of: B1; assay: self-cleavage kobs at 10000 uM GlcN6P; higher = faster cleavage; RNA array
Procedure, shortened: as §1

glucosamine-6-phosphate [5] = variants of: B1; assay: self-cleavage kobs at 640 uM GlcN6P; higher = faster cleavage; RNA array
Procedure, shortened: as §1

Variant	self-cleavage kobs at 40 uM GlcN6P (glucosamine-6-phosphate [1]) [s⁻¹]	self-cleavage kobs at 160 uM GlcN6P (glucosamine-6-phosphate [2]) [s⁻¹]	self-cleavage kobs at 2500 uM GlcN6P (glucosamine-6-phosphate [3]) [s⁻¹]	self-cleavage kobs at 10000 uM GlcN6P (glucosamine-6-phosphate [4]) [s⁻¹]	self-cleavage kobs at 640 uM GlcN6P (glucosamine-6-phosphate [5]) [s⁻¹]
C11G G41C C50U	< 1e-05				
C11G C16G	< 1e-05	< 1e-05	< 1e-05	< 1e-05	
C11U G13A	< 1e-05		3.03e-05 ± 1.4e-05	6.97e-05 ± 1.7e-05	
C11G U55G	< 1e-05	< 1e-05			
C11G A36G C67U	< 1e-05				
C11G U69G C71U	4.35e-05 ± 2.1e-05				
C10U U49C	< 1e-05		< 1e-05	< 1e-05	< 1e-05
C10U G43U U57G	< 1e-05			< 1e-05	
A12C A33C A39C	< 1e-05				
C10U G44A G51U	< 1e-05				
C10U G37U U45A	< 1e-05				
C11U A36G G38C U69C	< 1e-05				
A12C A33G U65C	< 1e-05				
C10U G66C	< 1e-05			< 1e-05	< 1e-05
C11G G43U A48U C61G A64G	< 1e-05		< 1e-05	< 1e-05	< 1e-05
